Experimental data from article PMC11424477 (2024).

Biological target: spike (trimeric, Wuhan) (SARS-CoV-2, UniProt P0DTC2)

B1: fibrin (protein)
chain 1: ADSGEGDFLAEGGGVR
chain 2: QGVNDNEEGFFSAR
chain 3: YVATRDNCCILDERFGSYCPTTCGIADFLSTYQTKVDKDLQSLEDILHQVENKTSEVKQLIKAIQLTYNPDESSKPNMIDAATLKSRKMLEEIMKYEASILTHDSSIRYLQEIYNSNNQKIVNLKEKVAQLEAQCQEPCKDTVQIHDITGKDCQDIANKGAKQSGLYFIKPLKANQQFLVYCEIDGSGNGWTVFQKRLDGSVDFKKNWIQYKEGFGHLSPTGTTEFWLGNEKIHLISTQSAIPYALRVELEDWNGRTSTADYAMFKVGPEADKYRLTYAYFAGGDAGDAFDGFDFGDDPSDKFFTSHNGMQFSTWDNDNDKFEGNCAEQDGSGWWMNKCHAGHLNGVYYQGGTYSKASTPNGYDNGIIWATWKTRWYSMKKTTMKIIPFNRLTIGEGQQHHLGGAKQVRPEHPAETEYDSLYPEDDL
Kd: 390 nM
